Consider three molecules from US20170015742A1 (published 2017).

Test [1] has as its target T1, recombinant human VEGF165 (human, UniProt P15692 207-395).
T1 construct: also called hVEGF165; huVEGF-A165
The test can be described thus: competition ELISA: blocks biotinylated hVEGF165 binding to coated hVEGF-R2-Fc. On the procedure: To identify molecules that could block the binding of hVEGF₁₆₅ to the hVEGF-R2 (KDR/Flk-1) receptor, a competition ELISA was performed. […] Plates were then washed four times with wash buffer (TBS, 0.05% Tween-20) and blocked with Superblock blocking buffer (Thermo Scientific, cat#37535). […] The pre-incubated sample/hVEGF₁₆₅ complex was added to the coated plate at 50 μL in duplicate and incubated for 30 minutes at 25° C. with shaking. Following incubation, plates were washed four times with wash buffer. Streptavidin-polyHRP-40 (Fitzgerald cal#65r-s104phrp) was diluted in assay diluent (10% Superblock containing 0.05% surfactamps) and added to plates (50 μL) for 45 minutes at 25° C. with shaking. Plates were washed four times with wash buffer and developed with the addition of Enhanced K-blue TMB substrate (Neogen cat#308177). The reaction was stopped with 2N sulfuric acid (VWR, cat# BDH3500-1) and the absorbance was read at 450 nm-570 nm. A decrease in observed optical density indicates the test molecule is blocking the hVEGF₁₆₅ binding to the hVEGF-R2-Fc. Data was analyzed using Softmax Pro 4.8 software and IC₅₀ values calculated using a sigmoidal dose response (variable slope) fit in GraphPad Prism 5.
On the technique in general: In an ELISA, binding on a coated surface is turned into a signal by an enzyme label.

For test [2], the target named is T2, recombinant human PDGF-BB (human, UniProt P01127 82-190).
T2 construct: also called hPDGF-BB; huPDGF-BB
The test can be described thus: competition ELISA: blocks hPDGF-BB-biotin binding to coated hPDGF-Rβ-Fc. The protocol:
Plates were then washed four times with wash buffer (TBS, 0.05% Tween-20) and blocked with Superblock blocking buffer (Thermo Scientific, cat#37535). During the blocking step, supernatants, antibodies, benchmark compounds or DVD-Ig were diluted in assay diluent (10% Superblock containing 0.05% surfactamps) and an eight point titration of each sample molecule was performed. […] Following incubation, plates were washed four times with wash buffer. Detection reagent Streptavidin-polyHRP-40 (Fitzgerald, cat#65r-s104phrp) was diluted in assay diluent and added to plates (50 μL) for 45 minutes at 25° C. with shaking. Plates were washed four times with wash buffer and developed with the addition of Enhanced K-blue TMB substrate (Neogen, cat#308177). The reaction was stopped with 2N sulfuric acid (VWR, cat# BDH3500-1) and the absorbance was read at 450 nm-570 nm. […] Data was analyzed using Softmax Pro 4.8 software and IC₅₀ values calculated using a sigmoidal dose response (variable slope) fit in GraphPad Prism 5.

Test [3] addresses Human VEGF-A 165 (human, UniProt P15692 207-395). The test can be described thus: cell-based or functional assay.
Test [4] concerns the target T3, Recombinant human FcγRIIIa F158, 6xHis-tagged (human, UniProt P08637 17-208, limits assumed).
T3 construct: Captured through its 6xHis tag
The test can be described thus: Biacore SPR; His-tagged human FcγR captured on anti-6xHis antibody, DVD-Ig injected. The protocol: (§1) A CM5 chip (GE Healthcare, Pittsburgh, Pa.) with mouse anti-6×His antibodies (“6×His” disclosed as SEQ ID NO: 405) that were directly immobilized on the chip via amine coupling according to the GE Healthcare protocol to the density of 10000RU (all flow cells) was used for experiments. Human FcγRs were captured on flow cells 2, 3 and 4. Flow cell 1 was used as a reference surface. HBS-EP+ was used as the running buffer. […] The chip surfaces were regenerated with an injection of 10 mM glycine pH 1.5 at a flow rate of 100 μL/minute over all four flow cells after each cycle.
Background: Surface plasmon resonance follows binding to a sensor surface in real time, without labels.

In test [5] the target is T4, Recombinant human FcγRIIb, 6xHis-tagged (human, UniProt P31994 46-217, limits assumed).
T4 construct: Captured through its 6xHis tag; also called huFcRIIb
T4 sequence: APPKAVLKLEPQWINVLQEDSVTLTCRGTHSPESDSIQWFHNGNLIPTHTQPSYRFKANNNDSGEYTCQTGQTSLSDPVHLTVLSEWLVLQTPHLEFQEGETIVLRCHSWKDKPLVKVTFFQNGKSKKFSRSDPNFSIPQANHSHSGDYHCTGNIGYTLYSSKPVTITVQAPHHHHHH
The description is as above. The protocol: as §1

Test [6] concerns the target T5, Recombinant human FcγRIIa R131, 6xHis-tagged (human, UniProt P12318 36-218, limits assumed).
T5 construct: Captured through its 6xHis tag
T5 sequence: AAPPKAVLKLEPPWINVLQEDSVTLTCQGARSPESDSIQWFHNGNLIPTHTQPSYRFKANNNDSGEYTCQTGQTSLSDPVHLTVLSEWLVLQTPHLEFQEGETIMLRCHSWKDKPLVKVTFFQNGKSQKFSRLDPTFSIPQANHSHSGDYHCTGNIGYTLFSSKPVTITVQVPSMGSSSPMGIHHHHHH
The test is described as above. On the procedure:
as §1

Test [7] addresses T6, Recombinant human FcγRIIa H131, 6xHis-tagged (human, UniProt P12318 36-218, limits assumed).
T6 construct: Captured through its 6xHis tag
T6 sequence: T5 sequence with R132H
The description is as above. The protocol: as §1

Test [8] addresses T7, Recombinant rat FcRn (rat, UniProt P13599 23-298, limits assumed).
T7 construct: FcRn is normally a heterodimer with beta-2-microglobulin
T7 sequence (looked up) 1: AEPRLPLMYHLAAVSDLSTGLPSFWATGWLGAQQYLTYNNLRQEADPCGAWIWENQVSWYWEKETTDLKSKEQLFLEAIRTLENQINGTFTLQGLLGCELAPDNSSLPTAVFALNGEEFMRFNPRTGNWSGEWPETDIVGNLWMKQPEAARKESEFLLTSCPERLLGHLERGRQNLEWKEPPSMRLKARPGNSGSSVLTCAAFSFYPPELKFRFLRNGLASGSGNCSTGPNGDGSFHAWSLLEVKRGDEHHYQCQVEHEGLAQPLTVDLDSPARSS
T7 sequence (looked up) 2: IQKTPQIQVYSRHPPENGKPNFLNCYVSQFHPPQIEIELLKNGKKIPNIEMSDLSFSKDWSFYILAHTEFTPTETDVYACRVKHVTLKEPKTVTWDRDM
The test can be described thus: Biacore SPR; DVD-Ig immobilised by amine coupling, recombinant FcRn injected; 1:1 binding fit. On the procedure: Human, cynomolgus, mouse, rat and rabbit recombinant FcRns were injected over all the flow cells at a flow rate of 50 μL/minute for 1 minute at a concentrations range of from 2.7 to 6000 nM (three fold serial dilution), followed by a 2 minute dissociation time. The surfaces were regenerated with an injection of 10 mM HCl at 100 μL/minute for 2 seconds followed by an injection of HBS-EP+, pH 7.4, at a flow rate of 50 μL/minute for 30 seconds over all four flow cells. Samples were prepared and run in two running buffer systems, pH 6.0 MES-EP+, and pH […]. Recombinant human FcγRIIIa V158 and rat and mouse FcRn data were fitted to 1:1 kinetic model. Recombinant human FcγRIIa R131 and FcγRIIa H131, FcγRIIIa F158, and recombinant human, cynomolgus and rabbit FcRn binding data were fitted to a steady state affinity model. Biacore T200 Evaluation Software version 2.0 was used to fit all the data.

The target of test [9] is T8, Recombinant human FcγRIIIa V158, 6xHis-tagged (human, UniProt P08637 17-208, limits assumed).
T8 construct: Captured through its 6xHis tag; also called huFcRIIIa 158V
The test can be described thus: Biacore SPR; His-tagged huFcγRIIIa 158V captured on anti-6xHis antibody, DVD-Ig injected; steady state fit. The protocol: as §1
The binding of DVD-Ig molecules to FcRn from various species and the binding of DVD-Ig molecules to various FcγRs were characterized by Biacore using the method described in Example 1.2.

In general, IC50 refers to the concentration needed to halve the response being measured. By Kd is commonly meant a measure of binding affinity in units of concentration.

Residue numbers refer to the chain shown, from its start. In names and notes the source's numbering stands.

T8 sequence (P08637 other isoform, or with tags, fused parts or gaps limits assumed): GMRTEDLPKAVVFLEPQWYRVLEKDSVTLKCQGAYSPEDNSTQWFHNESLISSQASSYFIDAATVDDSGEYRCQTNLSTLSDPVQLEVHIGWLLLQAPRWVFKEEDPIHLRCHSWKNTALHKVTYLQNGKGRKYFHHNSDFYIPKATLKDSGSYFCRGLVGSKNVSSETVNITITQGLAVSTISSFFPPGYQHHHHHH
T3 sequence (P08637 other isoform, or with tags, fused parts or gaps limits assumed): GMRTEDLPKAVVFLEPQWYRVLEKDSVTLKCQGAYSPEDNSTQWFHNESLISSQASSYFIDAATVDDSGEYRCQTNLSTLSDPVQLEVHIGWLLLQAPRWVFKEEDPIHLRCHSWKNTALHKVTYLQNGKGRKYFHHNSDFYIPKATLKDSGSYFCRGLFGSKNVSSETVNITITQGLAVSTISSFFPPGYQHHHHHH
T2 sequence (P01127 82-190 limits assumed): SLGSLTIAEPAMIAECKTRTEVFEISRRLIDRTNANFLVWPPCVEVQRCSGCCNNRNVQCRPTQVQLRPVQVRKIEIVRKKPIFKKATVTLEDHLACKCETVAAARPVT
T1 sequence (P15692 other isoform, or with tags, fused parts or gaps limits assumed): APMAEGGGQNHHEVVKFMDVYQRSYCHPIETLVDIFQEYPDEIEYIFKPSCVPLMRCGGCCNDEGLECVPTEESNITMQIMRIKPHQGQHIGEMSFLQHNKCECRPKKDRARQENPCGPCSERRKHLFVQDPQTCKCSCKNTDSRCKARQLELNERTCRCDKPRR
Human VEGF-A 165, sequence (P15692 other isoform, or with tags, fused parts or gaps): as the sequence (P15692 other isoform, or with tags, fused parts or gaps limits assumed) above

B1: hVEGF 4G8.3-LS-hPDGF 9E8.4 [hu IgG1/k] mut(234, 235) H435A (bispecific antibody)
heavy: EVQLVQSGSELKKPGASVKVSCKASGYTFTNYGMYWVRQAPGQGLEWMGWINTETGKPTYADDFKGRFVFSLDTSVSTAYLQISSLKAEDTAVYYCARTNYYYRSYIFYFDYWGQGTMVTVSSASTKGPSVFPLAPEVTLRESGPALVKPTQTLTLTCTFSGFSLSTYGMGVGWIRQPPGKALEWLANIWWDDDKYYNPSLKNRLTISKDTSKNQVVLTMTNMDPVDTATYYCARIESIGTTYSFDYWGQGTMVTVSSASTKGPSVFPLAPSSKSTSGGTAALGCLVKDYFPEPVTVSWNSGALTSGVHTFPAVLQSSGLYSLSSVVTVPSSSLGTQTYICNVNHKPSNTKVDKKVEPKSCDKTHTCPPCPAPEAAGGPSVFLFPPKPKDTLMISRTPEVTCVVVDVSHEDPEVKFNWYVDGVEVHNAKTKPREEQYNSTYRVVSVLTVLHQDWLNGKEYKCKVSNKALPAPIEKTISKAKGQPREPQVYTLPPSREEMTKNQVSLTCLVKGFYPSDIAVEWESNGQPENNYKTTPPVLDSDGSFFLYSKLTVDKSRWQQGNVFSCSVMHEALHNAYTQKSLSLSPGK
light: DTVLTQSPATLSLSPGERATLSCRASESVSTHMHWYQQKPGQAPRLLIYGASNLESGVPARFSGSGSGTDFTLTISSLEPEDFAVYFCQQSWNDPFTFGQGTKLEIKRTVAAPEFVLTQSPGTLSLSPGERATLSCERSSGDIGDSYVSWYQQKPGQAPRLVIYADDQRPSGIPDRFSGSGSGTDFTLTISRLEPEDFAVYYCQSYDINIDIVFGGGTKVEIKGTVAAPSVFIFPPSDEQLKSGTASVVCLLNNFYPREAKVQWKVDNALQSGNSQESVTEQDSKDSTYSLSSTLTLSKADYEKHKVYACEVTHQGLSSPVTKSFNRGEC
notes: DVD-Ig, outer hBDB-4G8.3, inner hBDI-9E8.4, HG-long/LK-short; also called PR-1575573; 4G8.3-LS-9E8.4
B1: the IC50 in test [1] was 0.131 nM; in test [2], > 5 nM.

B2: chBEW-9D2 (antibody, human IgG1, kappa, L234A L235A, V domains shown)
VH: QIQLVQSGPELKKPGESVKISCKASGYTFTNYGMYWVKLAPGQGLQYLGWINTETGKPTYADDFKGRFVFFLETSASTAYLQINNLRNEDMATYFCARPSDYYDGFWFAYWGQGTLVTVSS
VL: DTVLTQSPALTVSPGERVSISCRASEWVNSYMHWYQQNPGQQPKLLIYKASNLASGVPARFSGSGSGTDFTLTLDPVEADDTATYFCQQSWNDPLTFGSGTKLEIKR
On to B2, for which, in test [3], the “huVEGF-A165 Neutralization Potency in HMVEC-d cells” value came to 2.15 nM.

B3: 4G8.3-SL-9E8.4 (PR-1569579), anti-VEGF-A/anti-PDGF-BB DVD-Ig, hu IgG1/k mut(234,235) H435A (bispecific antibody)
heavy: EVQLVQSGSELKKPGASVKVSCKASGYTFTNYGMYWVRQAPGQGLEWMGWINTETGKPTYADDFKGRFVFSLDTSVSTAYLQISSLKAEDTAVYYCARTNYYYRSYIFYFDYWGQGTMVTVSSASTKGPEVTLRESGPALVKPTQTLTLTCTFSGFSLSTYGMGVGWIRQPPGKALEWLANIWWDDDKYYNPSLKNRLTISKDTSKNQVVLTMTNMDPVDTATYYCARIESIGTTYSFDYWGQGTMVTVSSASTKGPSVFPLAPSSKSTSGGTAALGCLVKDYFPEPVTVSWNSGALTSGVHTFPAVLQSSGLYSLSSVVTVPSSSLGTQTYICNVNHKPSNTKVDKKVEPKSCDKTHTCPPCPAPEAAGGPSVFLFPPKPKDTLMISRTPEVTCVVVDVSHEDPEVKFNWYVDGVEVHNAKTKPREEQYNSTYRVVSVLTVLHQDWLNGKEYKCKVSNKALPAPIEKTISKAKGQPREPQVYTLPPSREEMTKNQVSLTCLVKGFYPSDIAVEWESNGQPENNYKTTPPVLDSDGSFFLYSKLTVDKSRWQQGNVFSCSVMHEALHNAYTQKSLSLSPGK
light: DTVLTQSPATLSLSPGERATLSCRASESVSTHMHWYQQKPGQAPRLLIYGASNLESGVPARFSGSGSGTDFTLTISSLEPEDFAVYFCQQSWNDPFTFGQGTKLEIKRTVAAPSVFIFPPEFVLTQSPGTLSLSPGERATLSCERSSGDIGDSYVSWYQQKPGQAPRLVIYADDQRPSGIPDRFSGSGSGTDFTLTISRLEPEDFAVYYCQSYDINIDIVFGGGTKVEIKGTVAAPSVFIFPPSDEQLKSGTASVVCLLNNFYPREAKVQWKVDNALQSGNSQESVTEQDSKDSTYSLSSTLTLSKADYEKHKVYACEVTHQGLSSPVTKSFNRGEC
notes: also called hVEGF 4G8.3-SL-hPDGF 9E8.4 [hu IgG1/k] mut(234, 235) H435A
B3: the binding result in [4] was “no binding (tested: DVD-Ig 31.25 to 4000 nM)”; in test [5], “no binding (tested: DVD-Ig 31.25 to 4000 nM)”; in [6], “no binding (tested: DVD-Ig 31.25 to 4000 nM)”; in [7] it was “no binding (tested: DVD-Ig 31.25 to 4000 nM)”; in test [8], “no binding (tested: FcRn 2.7 to 6000 nM)”. Further, the Kd in test [9] came to 12000 nM.
